Experimental data taken from patent publication US20190177431A1 (FUDAN UNIVERSITY, published 2019).
Where two headings read alike, the source gives them in different places.

T1: murine TF (B16-F10 cells) (murine, UniProt P20352 29-294)
T1 construct: whole, on cells
T1 sequence (looked up): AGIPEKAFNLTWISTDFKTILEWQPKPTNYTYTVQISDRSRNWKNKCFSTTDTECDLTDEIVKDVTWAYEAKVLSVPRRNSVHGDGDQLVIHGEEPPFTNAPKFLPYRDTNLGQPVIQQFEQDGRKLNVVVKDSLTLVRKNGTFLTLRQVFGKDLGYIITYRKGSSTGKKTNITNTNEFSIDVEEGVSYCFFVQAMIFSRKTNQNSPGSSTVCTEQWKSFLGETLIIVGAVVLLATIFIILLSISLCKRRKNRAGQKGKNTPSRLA

B1: TF-mAb-H46 (antibody, V domains shown)
VH: EVQLVQSGAEVKKPGESLKISCKGSGYSFTSYWMNWVKQMPGKGLEWMGMIYPADSETRLNQKFKDKATLSVDKSISTAYLQWSSLKASDTAMYYCAREDYGSSDYWGQGTTVTVSS
VL: EIVLTQSPDFQSVTPKEKVTITCSASSSVSYMNWYQQKPDQSPKIWIYGISNLASGVPSRFSGSGSGTDFTLTINSLEAEDAATYYCQQKSSFPWTFGGGTKVEIK
notes: Humanized
B2: TF-mAb-H47 (antibody, V domains shown)
VH: QVQLVQSGAEVKKPGASVKVSCKASGYSFISYWMNWVRQAPGQGLEWIGMIYPADSETRLNQKFKDRATLTVDKSTSTAYMELSSLRSEDTAVYYCAREDYGSSDYWGQGTTVTVSS
VL: B1 VL
notes: Humanized
B3: TF-mAb-H48 (antibody, V domains shown)
VH: QVQLVQSGSELKKPGASVKVSCKASGYSFISYWMNWVRQAPGQGLEWIGMIYPADSETRLNQKFKDRAVLSVDKSVSTAYLQICSLKAEDTAVYYCAREDYGSSDYWGQGTTVTVSS
VL: B1 VL
notes: Humanized
B4: TF-mAb-SC1 (antibody, V domains shown)
VH: QVQLQQPGAELVRPGASVKLSCKASGYSFISYWMNWVKQRPGQGLEWIGMIYPADSETRLNQKFKDKATLTVDKSSSTAYMQLSSPTSEDSAVYYCAREDYGSSDYWGQGTTLTVSS
VL: EILLTQSPAIIAASPGEKVTITCSASSSVSYMNWYLQKPGSSPKIWIYGISNLASGVPARFSGSGSGTSFSFTINSMETEDVATYYCQQKSSFPWTFGGGTKLEIK
B5: TF-mAb-Ch (antibody, V domains shown)
VH: B4 VH
VL: B4 VL
notes: Variable regions of TF-mAb-SC1 cloned into vectors with human IgG1 heavy chain constant region and human kappa constant region; also called human-mouse chimeric antibody; chimeric antibody TF-mAb-Ch

Tests used:
[1] = molecular target: T2, human TF on the cell surface of tumor cells (human, UniProt P13726 33-295); assay: flow cytometry on MDA-MB-231 cells, antibody at 1 µg/mL
T2 construct: whole, on cells; Endogenous TF on TF-positive human tumor cell lines; also called cell surface TF
Protocol: (§1) The cells were washed with PBS twice to remove the unbound primary antibody, and the target cells were incubated with 200 μL PE-labeled secondary antibody (2 μg/mL) at 4° C. for 30 min. The cells were washed with PBS twice to remove the unbound secondary antibody, and finally the cells were re-suspended in 400 μL PBS.

[2] = molecular target: T3, extracellular domain of human TF protein (human, UniProt P13726 34-251); assay: ELISA, coated TF extracellular domain
T3 construct: range 34-251; Limits 34-251 are stated for the immunogen; also called the extracellular domain protein of TF; TF antigen
Protocol: (§2) The antigen (the extracellular domain protein of TF) was diluted to 0.5 μg/mL with a coating solution, and was used to coat an ELISA plate overnight, at 100 μL/well and 4° C. The excessive antigen was removed by washing. The plate was blocked with 2% BSA at room temperature for 2 h, and then each of the 3-fold serial diluted monoclonal antibodies was added at 100 μL/well, and was incubated for 2 h at room temperature. The unbound antibodies were removed by washing, and an appropriate concentration of horseradish peroxidase-labeled anti-mouse secondary antibody was added at 100 μL/well, and incubated for 1 h at room temperature. The unbound secondary antibody was removed by washing, TMB chromogenic solution was added, and the color was developed to an appropriate color depth. 2M H₂SO₄ was added at 50 μL/well, to stop the chromogenic reaction, the absorbance at 450 nm was then determined, and the data was analyzed.
Firstly, the 20 humanized antibodies were determined for their affinity for the extracellular domain protein of TF by ELISA binding assay (The experimental method refers to Step \textcircled{4} of Example 1).

[3] = molecular target: T2, human TF on the cell surface of tumor …; assay: flow cytometry on MDA-MB-231 cells, antibody at 10 µg/mL; set-up: reference not given here
Protocol: as §1

[4] = molecular target: T1, murine TF (B16-F10 cells); assay: flow cytometry on B16-F10 cells
From the text: After preliminary screening, about 30 hybridoma cells were selected for secondary limiting dilution cloning, and then 6 antibodies were selected for large-scale expression and purification.

[5] = molecular target: T3, extracellular domain of human TF protein; assay: ELISA, coated TF extracellular domain; remark: listed apart in the source
Protocol: as §2

[6] = molecular target: T2, human TF on the cell surface of tumor …; assay: cell-based or functional assay
[7] = molecular target: T2, human TF on the cell surface of tumor …; assay: flow cytometry on BxPC-3 cells
Protocol: as §1

[8] = molecular target: T2, human TF on the cell surface of tumor …; assay: flow cytometry on U87MG cells
Protocol: as §1

[9] = molecular target: T2, human TF on the cell surface of tumor …; assay: flow cytometry on MDA-MB-231 cells
[10] = molecular target: T2, human TF on the cell surface of tumor …; assay: flow cytometry on HCC1806 cells

Row | Binder | MFI [1] | EC50 [2] [nM] | MFI [3] | binding result [4] | EC50 [5] [nM] | IC50 of inhibiting FXa production (BxPC-3 cells) [6] [nM] | IC50 of inhibiting FXa production (MDA-MB-231 cells) [6] [nM] | EC50 [7] [nM] | EC50 [8] [nM] | EC50 [9] [nM] | EC50 [10] [nM]
1 | B1 | 3120 | 0.0119 | 3410 |  |  |  |  |  |  |  | 
2 | B2 | 3000 | 0.013 | 3150 |  |  |  |  |  |  |  | 
3 | B3 | 2610 | 0.0153 | 2900 |  |  |  |  |  |  |  | 
4 | B4 |  |  |  | no binding (tested: 10 µg/mL) | ~0.019 | 9 | 6.4 | 2.6 | 1.6 | 2.5 | 
5 | B5 | 3370 | 0.01 | 3540 |  | ~0.011 |  |  |  |  | 2.3 | 2.1
